Assay results taken from article PMC8449409 (2021).

Molecular target: T1, β-catenin (Mus musculus, UniProt Q02248)
T1 chain: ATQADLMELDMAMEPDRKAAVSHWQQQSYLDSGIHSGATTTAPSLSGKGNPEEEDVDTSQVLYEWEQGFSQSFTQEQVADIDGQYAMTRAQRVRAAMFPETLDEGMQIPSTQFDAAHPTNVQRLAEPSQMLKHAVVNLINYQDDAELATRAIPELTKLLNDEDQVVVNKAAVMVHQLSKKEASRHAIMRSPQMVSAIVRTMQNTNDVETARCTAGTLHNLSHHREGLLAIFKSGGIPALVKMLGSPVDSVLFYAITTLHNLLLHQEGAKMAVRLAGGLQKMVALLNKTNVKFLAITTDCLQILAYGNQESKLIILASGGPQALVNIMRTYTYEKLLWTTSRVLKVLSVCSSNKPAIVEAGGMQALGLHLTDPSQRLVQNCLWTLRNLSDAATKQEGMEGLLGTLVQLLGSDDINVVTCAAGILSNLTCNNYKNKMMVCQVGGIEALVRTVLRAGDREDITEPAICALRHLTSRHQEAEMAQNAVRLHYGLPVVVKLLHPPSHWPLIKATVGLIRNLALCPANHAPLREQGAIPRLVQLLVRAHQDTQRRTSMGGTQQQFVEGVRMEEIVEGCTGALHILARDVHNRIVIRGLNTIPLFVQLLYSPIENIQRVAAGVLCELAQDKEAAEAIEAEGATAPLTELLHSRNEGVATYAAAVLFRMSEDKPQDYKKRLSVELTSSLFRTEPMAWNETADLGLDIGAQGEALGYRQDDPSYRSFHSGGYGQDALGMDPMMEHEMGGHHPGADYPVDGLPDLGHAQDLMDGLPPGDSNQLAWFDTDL

Kd: > 1 µM
Binder: DPTAPPYDSLLVFDYEGSGS [E-cadherin core-binding peptide core-binding region (20 aa)]
